T1: Sec24d (lacking residues 1-266) (human, UniProt O94855 267-1032)
T1 sequence (looked up): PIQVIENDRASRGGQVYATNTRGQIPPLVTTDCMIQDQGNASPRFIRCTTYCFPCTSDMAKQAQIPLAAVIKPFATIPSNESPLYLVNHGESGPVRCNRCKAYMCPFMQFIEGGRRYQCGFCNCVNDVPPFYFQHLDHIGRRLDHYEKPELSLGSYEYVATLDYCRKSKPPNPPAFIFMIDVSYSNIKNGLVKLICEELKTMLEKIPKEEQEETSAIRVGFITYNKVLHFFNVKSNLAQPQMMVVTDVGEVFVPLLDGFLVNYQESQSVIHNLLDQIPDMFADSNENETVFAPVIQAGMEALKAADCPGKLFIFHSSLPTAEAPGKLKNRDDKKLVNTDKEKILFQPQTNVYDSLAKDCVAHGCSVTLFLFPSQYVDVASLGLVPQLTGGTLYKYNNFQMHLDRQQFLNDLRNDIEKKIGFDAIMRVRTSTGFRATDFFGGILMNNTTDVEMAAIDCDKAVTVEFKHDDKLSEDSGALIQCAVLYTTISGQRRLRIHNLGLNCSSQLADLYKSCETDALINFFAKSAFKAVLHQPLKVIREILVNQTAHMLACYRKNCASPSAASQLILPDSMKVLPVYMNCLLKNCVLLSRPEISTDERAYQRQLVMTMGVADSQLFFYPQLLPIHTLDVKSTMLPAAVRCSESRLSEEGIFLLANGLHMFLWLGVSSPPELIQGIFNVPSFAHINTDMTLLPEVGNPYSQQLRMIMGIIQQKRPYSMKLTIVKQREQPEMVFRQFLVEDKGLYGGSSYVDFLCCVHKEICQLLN


Target: T1, Sec24d (lacking residues 1-266)

Binder	binding result
TTIPMDE [membrin peptide 116TTIPMDE122]	binds
DVAIDMMDP [syntaxin 5 peptide 188DVAIDMMDP196]	binds
